Data from the supplement of paper PMC10567573.

B1: WEE1 (parent)
chain: FLGSSFSPVRCGGPGDASPRGCGA

Variants of: B1
Assay: protein stability index of a GFP-peptide fusion (GPS, HEK-293T) (PSI 1-6); higher = more stable
Settings: c terminus: a fixed tail appended
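Further: lentivirally expressed fusions sorted by FACS into six bins by GFP to DsRed ratio, PSI derived from sequencing read proportions per bin multiplied by bin number.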

Row | Variant | protein stability index
1 | FLGSSFSPVRCGGPGDATPRGCGA [S18T] | 1.42
2 | FLGSSFSPVRCGGPGDAEPRGCGA [S18E] | 2.15
3 | FLGSSFSPVRCGGPGDACPRGCGA [S18C] | 1.86
4 | FLGSSFSPVRCGGPGDAMPRGCGA [S18M] | 1.62
5 | FLGSSFSPVRCGGPGDAIPRGCGA [S18I] | 1.75
6 | FLGSSFSPVRCGGPGDAGPRGCGA [S18G] | 1.98
7 | FLGSSFSPVRCGGPGDAFPRGCGA [S18F] | 1.86
8 | FLGSSFSPVRCGGPGDANPRGCGA [S18N] | 1.84
9 | FLGSSFSPVRCGGPGDAQPRGCGA [S18Q] | 1.96
10 | FLGSSFSPVRCGGPGDAWPRGCGA [S18W] | 2.3
11 | FLGSSFSPVRCGGPGDAVPRGCGA [S18V] | 2.09
12 | FLGSSFSPVRCGGPGDAHPRGCGA [S18H] | 1.83
13 | FLGSSFSPVRCGGPGDAPPRGCGA [S18P] | 2.89
14 | FLGSSFSPVRCGGPGDAAPRGCGA [S18A] | 1.71
15 | FLGSSFSPVRCGGPGDAKPRGCGA [S18K] | 2.07
16 | FLGSSFSPVRCGGPGDARPRGCGA [S18R] | 1.68
17 | FLGSSFSPVRCGGPGDAYPRGCGA [S18Y] | 1.65
18 | FLGSSFSPVRCGGPGDADPRGCGA [S18D] | 2.16
19 | FLGSSFSPVRCGGPGDALPRGCGA [S18L] | 2
20 | FLGSSFSPVRCGGPGDASPIGCGA [R20I] | 1.23
21 | FLGSSFSPVRCGGPGDASPMGCGA [R20M] | 1.57
22 | FLGSSFSPVRCGGPGDASPTGCGA [R20T] | 1.8
23 | FLGSSFSPVRCGGPGDASPEGCGA [R20E] | 2.28
24 | FLGSSFSPVRCGGPGDASPYGCGA [R20Y] | 3.14

Row | Variant | protein stability index
25 | FLGSSFSPVRCGGPGDASPAGCGA [R20A] | 2.27
26 | FLGSSFSPVRCGGPGDASPGGCGA [R20G] | 1.36
27 | FLGSSFSPVRCGGPGDASPKGCGA [R20K] | 1.62
28 | FLGSSFSPVRCGGPGDASPDGCGA [R20D] | 2.17
29 | FLGSSFSPVRCGGPGDASPHGCGA [R20H] | 1.33
30 | FLGSSFSPVRCGGPGDASPSGCGA [R20S] | 1.55
31 | FLGSSFSPVRCGGPGDASPLGCGA [R20L] | 2.37
32 | FLGSSFSPVRCGGPGDASPQGCGA [R20Q] | 2.12
33 | FLGSSFSPVRCGGPGDASPNGCGA [R20N] | 2
34 | FLGSSFSPVRCGGPGDASPVGCGA [R20V] | 1.79
35 | FLGSSFSPVRCGGPGDASPPGCGA [R20P] | 2.14
36 | FLGSSFSPVRCGGPGDASPWGCGA [R20W] | 2.19
37 | FLGSSFSPVRCGGPGDASVRGCGA [P19V] | 2.23
38 | FLGSSFSPVRCGGPGDASCRGCGA [P19C] | 1.98
39 | FLGSSFSPVRCGGPGDASMRGCGA [P19M] | 1.35
40 | FLGSSFSPVRCGGPGDASARGCGA [P19A] | 2.78
41 | FLGSSFSPVRCGGPGDASLRGCGA [P19L] | 2.31
42 | FLGSSFSPVRCGGPGDASFRGCGA [P19F] | 2.62
43 | FLGSSFSPVRCGGPGDASRRGCGA [P19R] | 2.38
44 | FLGSSFSPVRCGGPGDASNRGCGA [P19N] | 2.45
45 | FLGSSFSPVRCGGPGDASDRGCGA [P19D] | 2
46 | FLGSSFSPVRCGGPGDASSRGCGA [P19S] | 1.8
47 | FLGSSFSPVRCGGPGDASKRGCGA [P19K] | 1.93
48 | FLGSSFSPVRCGGPGDASYRGCGA [P19Y] | 1.12

Row | Variant | protein stability index
49 | FLGSSFSPVRCGGPGDASHRGCGA [P19H] | 1.25
50 | FLGSSFSPVRCGGPGDASWRGCGA [P19W] | 2.52
51 | FLGSSFSPVRCGGPGDASQRGCGA [P19Q] | 1.57
52 | FLGSSFSPVRCGGPGDASGRGCGA [P19G] | 2
53 | FLGSSFSPVRCGGPGDASIRGCGA [P19I] | 1.57
54 | FLGSSFSPVRCGGPGDASTRGCGA [P19T] | 1.88
55 | FLGSSFSPVRCGGPGDASERGCGA [P19E] | 2.14
56 | FLGSSFSPVRCGGPGDSSPRGCGA [A17S] | 1.39
57 | FLGSSFSPVRCGGPGDFSPRGCGA [A17F] | 1.54
58 | FLGSSFSPVRCGGPGDKSPRGCGA [A17K] | 1.53
59 | FLGSSFSPVRCGGPGDDSPRGCGA [A17D] | 2.34
60 | FLGSSFSPVRCGGPGDMSPRGCGA [A17M] | 1.56
61 | FLGSSFSPVRCGGPGDRSPRGCGA [A17R] | 2.21
62 | FLGSSFSPVRCGGPGDISPRGCGA [A17I] | 1.87
63 | FLGSSFSPVRCGGPGDNSPRGCGA [A17N] | 1.99
64 | FLGSSFSPVRCGGPGDQSPRGCGA [A17Q] | 1.53
65 | FLGSSFSPVRCGGPGDTSPRGCGA [A17T] | 1.4
66 | FLGSSFSPVRCGGPGDYSPRGCGA [A17Y] | 1.95
67 | FLGSSFSPVRCGGPGDWSPRGCGA [A17W] | 2.29
68 | FLGSSFSPVRCGGPGDVSPRGCGA [A17V] | 1.47
69 | FLGSSFSPVRCGGPGDESPRGCGA [A17E] | 1.95
70 | FLGSSFSPVRCGGPGDPSPRGCGA [A17P] | 2.31
71 | FLGSSFSPVRCGGPGDCSPRGCGA [A17C] | 2.06
72 | FLGSSFSPVRCGGPGDLSPRGCGA [A17L] | 1.78

Row | Variant | protein stability index
73 | FLGSSFSPVRCGGPGDGSPRGCGA [A17G] | 2.07
74 | FLGSSFSPVRCGGPGDHSPRGCGA [A17H] | 1.8
75 | FLGSSFSPVRCGGPGDASPRGFGA [C22F] | 2.48
76 | FLGSSFSPVRCGGPGDASPRGDGA [C22D] | 1.61
77 | FLGSSFSPVRCGGPGDASPRGTGA [C22T] | 2.47
78 | FLGSSFSPVRCGGPGDASPRGVGA [C22V] | 1.73
79 | FLGSSFSPVRCGGPGDASPRGNGA [C22N] | 1.8
80 | FLGSSFSPVRCGGPGDASPRGEGA [C22E] | 1.95
81 | FLGSSFSPVRCGGPGDASPRGWGA [C22W] | 2.96
82 | FLGSSFSPVRCGGPGDASPRGYGA [C22Y] | 2.1
83 | FLGSSFSPVRCGGPGDASPRGGGA [C22G] | 2.13
84 | FLGSSFSPVRCGGPGDASPRGIGA [C22I] | 1.58
85 | FLGSSFSPVRCGGPGDASPRGRGA [C22R] | 2.27
86 | FLGSSFSPVRCGGPGDASPRGPGA [C22P] | 1.59
87 | FLGSSFSPVRCGGPGDASPRGMGA [C22M] | 1.87
88 | FLGSSFSPVRCGGPGDASPRGAGA [C22A] | 1.88
89 | FLGSSFSPVRCGGPGDASPRGLGA [C22L] | 1.75
90 | FLGSSFSPVRCGGPGDASPRGSGA [C22S] | 2.73
91 | FLGSSFSPVRCGGPGDASPRGHGA [C22H] | 2.94
92 | FLGSSFSPVRCGGPGDASPRGQGA [C22Q] | 1.73
93 | FLGSSFSPVRCGGPGDASPRGKGA [C22K] | 2.17
94 | FLGSSFSPVRCGGAGDASPRGCGA [P14A] | 1.45
